Target: binding sites on guinea-pig eosinophils (guinea-pig)
Assay: radioligand binding, 0.1 nM 125I-RANTES on 4x10^5 guinea-pig eosinophils, no competitor

BO: 14.4%
Substance: recombinant human RANTES (from UniProt P13501 24-91) (ligand)

Source: patent publication US20060178504A1
